Measured values published in US20260242419A1, “A CYCLIC PEPTIDE FOR TRAPPING INTERLEUKIN-1 BETA” (Merck Sharp & Dohme LLC, priority 2023, published 2026).
Starred links: 1 amine or outer side, 2 acyl side, 3 side chain; linkers in the order of their positions; H or OH if unused. Non-standard residues stand in square brackets, D forms with d. TyrEtNAc = (2S)-3-[4-(2-acetamidoethoxy)phenyl]-2-amino-propanoic acid, CC(=O)NCCOc1ccc(C[C@H](N[*:1])C(=O)[*:2])cc1; Phe(4-(4-Ac-piperazinyl)) = CC(=O)N1CCN(c2ccc(C[C@H](N)C(=O)O)cc2)CC1; dPro(4R-(4-pyridylmethyl)) = O=C(O)[C@H]1C[C@@H](Cc2ccncc2)CN1; Trp(βS-Me,4-F) = C[C@@H](c1c[nH]c2cccc(F)c12)[C@H](N)C(=O)O; Ala(1-bicyclo(1.1.1)pentyl) = N[C@@H](CC12CC(C1)C2)C(=O)O; dPro(3S-(4-F-Bn)) = O=C(O)[C@@H]1NCC[C@@H]1Cc1ccc(F)cc1; Phe(2-Cl,4-COOH) = N[C@@H](Cc1ccc(C(=O)O)cc1Cl)C(=O)O; Ala(pyrimidin-5-yl) = N[C@@H](Cc1cncnc1)C(=O)O; Phe(4-CONH2) = NC(=O)c1ccc(C[C@H](N)C(=O)O)cc1; Phe(4-COOH) = N[C@@H](Cc1ccc(C(=O)O)cc1)C(=O)O; Pro(cis-4-F) = O=C(O)[C@@H]1C[C@H](F)CN1; Ala(4-THP) = N[C@@H](CC1CCOCC1)C(=O)O; d(αMeD) = C[C@@](N)(CC(=O)O)C(=O)O; 4Pal = N[C@@H](Cc1ccncc1)C(=O)O; d(αMeS) = C[C@@](N)(CO)C(=O)O; Dab = NCC[C@H](N)C(=O)O; Aib = CC(C)(N)C(=O)O

B1: SEQ ID NO 373 (peptide)
peptide: cyclo([TyrEtNAc][Ala(1-bicyclo(1.1.1)pentyl)][Phe(4-CONH2)]G[Pro(cis-4-F)][Trp(βS-Me,4-F)][Aib]SW[d(αMeD)][Ala(4-THP)]Q[Dab]G[dPro(3S-(4-F-Bn))])
SMILES: CC(=O)NCCOc1ccc(C[C@@H]2NC(=O)[C@H]3[C@@H](Cc4ccc(F)cc4)CCN3C(=O)CNC(=O)[C@H](CCN)NC(=O)[C@H](CCC(N)=O)NC(=O)[C@H](CC3CCOCC3)NC(=O)[C@@](C)(CC(=O)O)NC(=O)[C@H](Cc3c[nH]c4ccccc34)NC(=O)[C@H](CO)NC(=O)C(C)(C)NC(=O)[C@H]([C@@H](C)c3c[nH]c4cccc(F)c34)NC(=O)[C@@H]3C[C@H](F)CN3C(=O)CNC(=O)[C@H](Cc3ccc(C(N)=O)cc3)NC(=O)[C@H](CC34CC(C3)C4)NC2=O)cc1
B2: SEQ ID NO 376 (peptide)
peptide: cyclo([TyrEtNAc][Ala(1-bicyclo(1.1.1)pentyl)][Phe(4-CONH2)]G[Pro(cis-4-F)][Trp(βS-Me,4-F)][Aib]SW[d(αMeD)][Ala(4-THP)]Q[Dab]G[dPro(4R-(4-pyridylmethyl))])
SMILES: CC(=O)NCCOc1ccc(C[C@@H]2NC(=O)[C@H]3C[C@@H](Cc4ccncc4)CN3C(=O)CNC(=O)[C@H](CCN)NC(=O)[C@H](CCC(N)=O)NC(=O)[C@H](CC3CCOCC3)NC(=O)[C@@](C)(CC(=O)O)NC(=O)[C@H](Cc3c[nH]c4ccccc34)NC(=O)[C@H](CO)NC(=O)C(C)(C)NC(=O)[C@H]([C@@H](C)c3c[nH]c4cccc(F)c34)NC(=O)[C@@H]3C[C@H](F)CN3C(=O)CNC(=O)[C@H](Cc3ccc(C(N)=O)cc3)NC(=O)[C@H](CC34CC(C3)C4)NC2=O)cc1
B3: SEQ ID NO 366 (peptide)
peptide: cyclo([Phe(4-(4-Ac-piperazinyl))][4Pal][Phe(4-COOH)]G[Pro(cis-4-F)][Trp(βS-Me,4-F)][Aib]SW[Aib][Ala(pyrimidin-5-yl)]Q[Dab]G[dPro(4R-(4-pyridylmethyl))])
SMILES: CC(=O)N1CCN(c2ccc(C[C@@H]3NC(=O)[C@H]4C[C@@H](Cc5ccncc5)CN4C(=O)CNC(=O)[C@H](CCN)NC(=O)[C@H](CCC(N)=O)NC(=O)[C@H](Cc4cncnc4)NC(=O)C(C)(C)NC(=O)[C@H](Cc4c[nH]c5ccccc45)NC(=O)[C@H](CO)NC(=O)C(C)(C)NC(=O)[C@H]([C@@H](C)c4c[nH]c5cccc(F)c45)NC(=O)[C@@H]4C[C@H](F)CN4C(=O)CNC(=O)[C@H](Cc4ccc(C(=O)O)cc4)NC(=O)[C@H](Cc4ccncc4)NC3=O)cc2)CC1
B4: SEQ ID NO 375 (peptide)
peptide: cyclo([TyrEtNAc][Ala(1-bicyclo(1.1.1)pentyl)][Phe(4-COOH)]G[Pro(cis-4-F)][Trp(βS-Me,4-F)][Aib]SW[d(αMeS)][Ala(4-THP)]Q[Dab]G[dPro(4R-(4-pyridylmethyl))])
SMILES: CC(=O)NCCOc1ccc(C[C@@H]2NC(=O)[C@H]3C[C@@H](Cc4ccncc4)CN3C(=O)CNC(=O)[C@H](CCN)NC(=O)[C@H](CCC(N)=O)NC(=O)[C@H](CC3CCOCC3)NC(=O)[C@@](C)(CO)NC(=O)[C@H](Cc3c[nH]c4ccccc34)NC(=O)[C@H](CO)NC(=O)C(C)(C)NC(=O)[C@H]([C@@H](C)c3c[nH]c4cccc(F)c34)NC(=O)[C@@H]3C[C@H](F)CN3C(=O)CNC(=O)[C@H](Cc3ccc(C(=O)O)cc3)NC(=O)[C@H](CC34CC(C3)C4)NC2=O)cc1
B5: SEQ ID NO 369 (peptide)
peptide: cyclo([TyrEtNAc][4Pal][Phe(4-COOH)]G[Pro(cis-4-F)][Trp(βS-Me,4-F)][Aib]SW[d(αMeD)][Ala(pyrimidin-5-yl)]Q[Dab]G[dPro(3S-(4-F-Bn))])
SMILES: CC(=O)NCCOc1ccc(C[C@@H]2NC(=O)[C@H]3[C@@H](Cc4ccc(F)cc4)CCN3C(=O)CNC(=O)[C@H](CCN)NC(=O)[C@H](CCC(N)=O)NC(=O)[C@H](Cc3cncnc3)NC(=O)[C@@](C)(CC(=O)O)NC(=O)[C@H](Cc3c[nH]c4ccccc34)NC(=O)[C@H](CO)NC(=O)C(C)(C)NC(=O)[C@H]([C@@H](C)c3c[nH]c4cccc(F)c34)NC(=O)[C@@H]3C[C@H](F)CN3C(=O)CNC(=O)[C@H](Cc3ccc(C(=O)O)cc3)NC(=O)[C@H](Cc3ccncc3)NC2=O)cc1
B6: SEQ ID NO 365 (peptide)
peptide: cyclo([Phe(4-(4-Ac-piperazinyl))][4Pal][Phe(2-Cl,4-COOH)]G[Pro(cis-4-F)][Trp(βS-Me,4-F)][Aib]SW[Aib][Ala(pyrimidin-5-yl)]Q[Dab]G[dPro(4R-(4-pyridylmethyl))])
SMILES: CC(=O)N1CCN(c2ccc(C[C@@H]3NC(=O)[C@H]4C[C@@H](Cc5ccncc5)CN4C(=O)CNC(=O)[C@H](CCN)NC(=O)[C@H](CCC(N)=O)NC(=O)[C@H](Cc4cncnc4)NC(=O)C(C)(C)NC(=O)[C@H](Cc4c[nH]c5ccccc45)NC(=O)[C@H](CO)NC(=O)C(C)(C)NC(=O)[C@H]([C@@H](C)c4c[nH]c5cccc(F)c45)NC(=O)[C@@H]4C[C@H](F)CN4C(=O)CNC(=O)[C@H](Cc4ccc(C(=O)O)cc4Cl)NC(=O)[C@H](Cc4ccncc4)NC3=O)cc2)CC1
B7: SEQ ID NO 374 (peptide)
peptide: cyclo([TyrEtNAc][Ala(1-bicyclo(1.1.1)pentyl)][Phe(4-COOH)]G[Pro(cis-4-F)][Trp(βS-Me,4-F)][Aib]SW[d(αMeD)][Ala(4-THP)]Q[Dab]G[dPro(4R-(4-pyridylmethyl))])
SMILES: CC(=O)NCCOc1ccc(C[C@@H]2NC(=O)[C@H]3C[C@@H](Cc4ccncc4)CN3C(=O)CNC(=O)[C@H](CCN)NC(=O)[C@H](CCC(N)=O)NC(=O)[C@H](CC3CCOCC3)NC(=O)[C@@](C)(CC(=O)O)NC(=O)[C@H](Cc3c[nH]c4ccccc34)NC(=O)[C@H](CO)NC(=O)C(C)(C)NC(=O)[C@H]([C@@H](C)c3c[nH]c4cccc(F)c34)NC(=O)[C@@H]3C[C@H](F)CN3C(=O)CNC(=O)[C@H](Cc3ccc(C(=O)O)cc3)NC(=O)[C@H](CC34CC(C3)C4)NC2=O)cc1
B8: SEQ ID NO 370 (peptide)
peptide: cyclo([TyrEtNAc][Ala(1-bicyclo(1.1.1)pentyl)][Phe(4-COOH)]G[Pro(cis-4-F)][Trp(βS-Me,4-F)][Aib]SW[d(αMeD)][Ala(4-THP)]Q[Dab]G[dPro(3S-(4-F-Bn))])
SMILES: CC(=O)NCCOc1ccc(C[C@@H]2NC(=O)[C@H]3[C@@H](Cc4ccc(F)cc4)CCN3C(=O)CNC(=O)[C@H](CCN)NC(=O)[C@H](CCC(N)=O)NC(=O)[C@H](CC3CCOCC3)NC(=O)[C@@](C)(CC(=O)O)NC(=O)[C@H](Cc3c[nH]c4ccccc34)NC(=O)[C@H](CO)NC(=O)C(C)(C)NC(=O)[C@H]([C@@H](C)c3c[nH]c4cccc(F)c34)NC(=O)[C@@H]3C[C@H](F)CN3C(=O)CNC(=O)[C@H](Cc3ccc(C(=O)O)cc3)NC(=O)[C@H](CC34CC(C3)C4)NC2=O)cc1
B9: SEQ ID NO 371 (peptide)
peptide: cyclo([TyrEtNAc][Ala(1-bicyclo(1.1.1)pentyl)][Phe(4-COOH)]G[Pro(cis-4-F)][Trp(βS-Me,4-F)][Aib]SW[d(αMeS)][Ala(4-THP)]Q[Dab]G[dPro(3S-(4-F-Bn))])
SMILES: CC(=O)NCCOc1ccc(C[C@@H]2NC(=O)[C@H]3[C@@H](Cc4ccc(F)cc4)CCN3C(=O)CNC(=O)[C@H](CCN)NC(=O)[C@H](CCC(N)=O)NC(=O)[C@H](CC3CCOCC3)NC(=O)[C@@](C)(CO)NC(=O)[C@H](Cc3c[nH]c4ccccc34)NC(=O)[C@H](CO)NC(=O)C(C)(C)NC(=O)[C@H]([C@@H](C)c3c[nH]c4cccc(F)c34)NC(=O)[C@@H]3C[C@H](F)CN3C(=O)CNC(=O)[C@H](Cc3ccc(C(=O)O)cc3)NC(=O)[C@H](CC34CC(C3)C4)NC2=O)cc1
B10: SEQ ID NO 372 (peptide)
peptide: cyclo([TyrEtNAc][4Pal][Phe(4-COOH)]G[Pro(cis-4-F)][Trp(βS-Me,4-F)][Aib]SW[d(αMeD)][Ala(4-THP)]Q[Dab]G[dPro(3S-(4-F-Bn))])
SMILES: CC(=O)NCCOc1ccc(C[C@@H]2NC(=O)[C@H]3[C@@H](Cc4ccc(F)cc4)CCN3C(=O)CNC(=O)[C@H](CCN)NC(=O)[C@H](CCC(N)=O)NC(=O)[C@H](CC3CCOCC3)NC(=O)[C@@](C)(CC(=O)O)NC(=O)[C@H](Cc3c[nH]c4ccccc34)NC(=O)[C@H](CO)NC(=O)C(C)(C)NC(=O)[C@H]([C@@H](C)c3c[nH]c4cccc(F)c34)NC(=O)[C@@H]3C[C@H](F)CN3C(=O)CNC(=O)[C@H](Cc3ccc(C(=O)O)cc3)NC(=O)[C@H](Cc3ccncc3)NC2=O)cc1
B11: SEQ ID NO 368 (peptide)
peptide: cyclo([TyrEtNAc][4Pal][Phe(4-COOH)]G[Pro(cis-4-F)][Trp(βS-Me,4-F)][Aib]SW[Aib][Ala(pyrimidin-5-yl)]Q[Dab]G[dPro(4R-(4-pyridylmethyl))])
SMILES: CC(=O)NCCOc1ccc(C[C@@H]2NC(=O)[C@H]3C[C@@H](Cc4ccncc4)CN3C(=O)CNC(=O)[C@H](CCN)NC(=O)[C@H](CCC(N)=O)NC(=O)[C@H](Cc3cncnc3)NC(=O)C(C)(C)NC(=O)[C@H](Cc3c[nH]c4ccccc34)NC(=O)[C@H](CO)NC(=O)C(C)(C)NC(=O)[C@H]([C@@H](C)c3c[nH]c4cccc(F)c34)NC(=O)[C@@H]3C[C@H](F)CN3C(=O)CNC(=O)[C@H](Cc3ccc(C(=O)O)cc3)NC(=O)[C@H](Cc3ccncc3)NC2=O)cc1

Target: Recombinant human IL-1β (BioLegend 579404) (human, UniProt P01584 117-269)
Experiment: cell-based or functional assay

| MRC5 IC50 [nM] | Binder |
| --- | --- |
| 0.012 | B1 |
| 0.048 | B2 |
| 0.017 | cyclo([TyrEtNAc][4Pal][Phe2Cl4COOH]G[Pro(cis-4-F)][Trp(βS-Me,4-F)][Aib]SW[Aib][Ala(pyrimidin-5-yl)]Q[Dab]G[dPro(4R-(4-pyridylmethyl))]) [SEQ ID NO 367] |
| 0.021 | B3 |
| 0.025 | B4 |
| 0.021 | B5 |
| 0.023 | B6 |
| 0.017 | B7 |
| 0.015 | B8 |
| 0.014 | B9 |
| 0.009 | B10 |
| 0.022 | B11 |
